Assay results reported in the supplement of paper PMC10065799, “High-throughput profiling of sequence recognition by tyrosine kinases and SH2 domains using bacterial peptide display” (eLife, 2023).

What was measured:
c-Src = experiment: phosphorylation enrichment, bacterial display (enrichment ratio); higher = better substrate or ligand; peptides without Tyr show the background
EPHB1 = EPHB1 (UniProt P54762); experiment: as above
Hck = Hck (UniProt P08631); experiment: as above
Fes = Fes (UniProt P07332); experiment: as above
Chain of Fes (P07332 whole entry, looked up): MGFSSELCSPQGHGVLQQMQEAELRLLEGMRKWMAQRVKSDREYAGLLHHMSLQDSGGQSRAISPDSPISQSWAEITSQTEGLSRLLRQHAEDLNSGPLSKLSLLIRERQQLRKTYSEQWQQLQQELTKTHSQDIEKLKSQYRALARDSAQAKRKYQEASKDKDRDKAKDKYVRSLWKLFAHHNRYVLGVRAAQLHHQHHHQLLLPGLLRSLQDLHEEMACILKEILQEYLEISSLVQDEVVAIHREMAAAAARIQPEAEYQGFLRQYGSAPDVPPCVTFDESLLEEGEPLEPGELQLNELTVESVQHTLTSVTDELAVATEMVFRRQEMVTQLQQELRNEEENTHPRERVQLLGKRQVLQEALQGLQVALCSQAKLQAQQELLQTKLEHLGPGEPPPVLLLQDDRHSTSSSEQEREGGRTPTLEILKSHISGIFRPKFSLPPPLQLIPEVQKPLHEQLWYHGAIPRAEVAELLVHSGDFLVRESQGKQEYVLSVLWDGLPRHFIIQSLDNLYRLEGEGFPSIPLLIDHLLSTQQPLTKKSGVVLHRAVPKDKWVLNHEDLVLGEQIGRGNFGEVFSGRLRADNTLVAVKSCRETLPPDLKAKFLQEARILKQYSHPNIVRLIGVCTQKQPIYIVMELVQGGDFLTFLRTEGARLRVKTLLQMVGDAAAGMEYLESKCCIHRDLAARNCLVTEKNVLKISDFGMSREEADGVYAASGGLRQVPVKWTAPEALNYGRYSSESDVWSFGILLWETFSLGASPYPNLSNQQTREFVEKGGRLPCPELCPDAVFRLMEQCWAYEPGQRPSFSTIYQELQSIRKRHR

FGFR3 = FGFR3 (UniProt P22607); experiment: as above
Fyn = Fyn (UniProt P06241); experiment: as above
Chain of Fyn (P06241 whole entry, looked up): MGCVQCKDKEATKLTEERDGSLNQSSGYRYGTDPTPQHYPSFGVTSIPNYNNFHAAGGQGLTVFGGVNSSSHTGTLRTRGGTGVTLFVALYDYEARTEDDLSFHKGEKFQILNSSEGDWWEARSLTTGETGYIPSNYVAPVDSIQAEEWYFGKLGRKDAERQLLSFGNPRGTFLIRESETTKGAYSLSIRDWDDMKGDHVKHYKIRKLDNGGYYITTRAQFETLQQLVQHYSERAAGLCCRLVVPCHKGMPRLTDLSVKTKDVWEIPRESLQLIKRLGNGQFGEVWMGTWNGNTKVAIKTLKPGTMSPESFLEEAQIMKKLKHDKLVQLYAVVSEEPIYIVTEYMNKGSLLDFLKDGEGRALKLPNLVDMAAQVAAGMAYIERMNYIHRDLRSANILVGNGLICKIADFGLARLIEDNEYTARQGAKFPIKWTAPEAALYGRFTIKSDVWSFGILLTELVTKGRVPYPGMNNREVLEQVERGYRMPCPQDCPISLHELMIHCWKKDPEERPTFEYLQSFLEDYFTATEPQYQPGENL

FGFR1 = FGFR1 (UniProt P11362); experiment: as above
Chain of FGFR1 (P11362 whole entry, looked up): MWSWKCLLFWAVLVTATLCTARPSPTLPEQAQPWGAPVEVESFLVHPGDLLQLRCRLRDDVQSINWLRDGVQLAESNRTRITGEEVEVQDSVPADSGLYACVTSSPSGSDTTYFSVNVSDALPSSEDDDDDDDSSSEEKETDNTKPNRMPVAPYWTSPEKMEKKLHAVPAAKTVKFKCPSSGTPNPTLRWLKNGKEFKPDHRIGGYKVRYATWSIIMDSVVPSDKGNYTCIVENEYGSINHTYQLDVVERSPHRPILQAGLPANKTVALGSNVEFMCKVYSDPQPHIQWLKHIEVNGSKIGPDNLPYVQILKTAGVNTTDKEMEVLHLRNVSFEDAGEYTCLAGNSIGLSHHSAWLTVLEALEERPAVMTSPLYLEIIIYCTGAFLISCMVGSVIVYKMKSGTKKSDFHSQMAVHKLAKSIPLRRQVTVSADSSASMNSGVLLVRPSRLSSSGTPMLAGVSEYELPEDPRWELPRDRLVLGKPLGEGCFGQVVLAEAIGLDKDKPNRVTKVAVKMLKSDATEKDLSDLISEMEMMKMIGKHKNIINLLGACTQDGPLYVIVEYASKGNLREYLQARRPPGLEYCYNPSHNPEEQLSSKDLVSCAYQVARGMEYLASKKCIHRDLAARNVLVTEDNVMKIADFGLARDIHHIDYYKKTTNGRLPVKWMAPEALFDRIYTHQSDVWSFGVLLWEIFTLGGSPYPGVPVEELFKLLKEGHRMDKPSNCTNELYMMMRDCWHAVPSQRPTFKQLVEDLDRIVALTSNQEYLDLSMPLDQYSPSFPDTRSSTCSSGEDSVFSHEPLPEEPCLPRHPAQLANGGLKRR

EPHB2 = EPHB2 (UniProt P29323); experiment: as above
Chain of EPHB2 (P29323 whole entry, looked up): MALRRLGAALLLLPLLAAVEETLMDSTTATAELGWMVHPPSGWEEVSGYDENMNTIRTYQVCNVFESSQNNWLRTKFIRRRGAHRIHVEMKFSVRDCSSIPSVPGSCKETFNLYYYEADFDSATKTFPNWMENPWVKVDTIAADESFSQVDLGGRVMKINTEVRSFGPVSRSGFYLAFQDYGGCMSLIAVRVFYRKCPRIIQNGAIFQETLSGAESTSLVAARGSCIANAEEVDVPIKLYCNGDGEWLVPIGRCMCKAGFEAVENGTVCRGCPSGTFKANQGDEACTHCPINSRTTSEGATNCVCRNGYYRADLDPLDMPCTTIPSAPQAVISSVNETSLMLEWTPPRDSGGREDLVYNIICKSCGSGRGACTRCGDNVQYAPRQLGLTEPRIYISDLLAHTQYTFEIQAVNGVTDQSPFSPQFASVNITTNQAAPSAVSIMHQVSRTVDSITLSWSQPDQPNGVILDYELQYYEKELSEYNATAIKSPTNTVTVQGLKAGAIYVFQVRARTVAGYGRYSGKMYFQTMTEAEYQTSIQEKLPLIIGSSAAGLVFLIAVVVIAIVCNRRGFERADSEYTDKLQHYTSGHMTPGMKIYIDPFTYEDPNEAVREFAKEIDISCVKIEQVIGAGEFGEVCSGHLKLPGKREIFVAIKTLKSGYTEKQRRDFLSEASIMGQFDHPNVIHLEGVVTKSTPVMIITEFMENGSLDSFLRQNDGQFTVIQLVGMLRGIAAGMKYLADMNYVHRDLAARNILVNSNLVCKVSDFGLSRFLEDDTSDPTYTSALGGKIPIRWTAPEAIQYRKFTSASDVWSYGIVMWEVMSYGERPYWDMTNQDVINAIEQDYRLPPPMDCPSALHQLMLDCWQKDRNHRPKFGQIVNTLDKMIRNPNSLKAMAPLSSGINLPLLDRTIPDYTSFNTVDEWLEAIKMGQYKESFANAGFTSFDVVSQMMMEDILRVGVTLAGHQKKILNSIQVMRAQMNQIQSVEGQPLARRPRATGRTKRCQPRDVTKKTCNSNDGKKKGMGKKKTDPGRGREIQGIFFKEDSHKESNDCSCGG

c-Abl (mouse) = experiment: as above
MERTK = MERTK (UniProt Q12866); experiment: as above
Chain of MERTK (Q12866 whole entry, looked up): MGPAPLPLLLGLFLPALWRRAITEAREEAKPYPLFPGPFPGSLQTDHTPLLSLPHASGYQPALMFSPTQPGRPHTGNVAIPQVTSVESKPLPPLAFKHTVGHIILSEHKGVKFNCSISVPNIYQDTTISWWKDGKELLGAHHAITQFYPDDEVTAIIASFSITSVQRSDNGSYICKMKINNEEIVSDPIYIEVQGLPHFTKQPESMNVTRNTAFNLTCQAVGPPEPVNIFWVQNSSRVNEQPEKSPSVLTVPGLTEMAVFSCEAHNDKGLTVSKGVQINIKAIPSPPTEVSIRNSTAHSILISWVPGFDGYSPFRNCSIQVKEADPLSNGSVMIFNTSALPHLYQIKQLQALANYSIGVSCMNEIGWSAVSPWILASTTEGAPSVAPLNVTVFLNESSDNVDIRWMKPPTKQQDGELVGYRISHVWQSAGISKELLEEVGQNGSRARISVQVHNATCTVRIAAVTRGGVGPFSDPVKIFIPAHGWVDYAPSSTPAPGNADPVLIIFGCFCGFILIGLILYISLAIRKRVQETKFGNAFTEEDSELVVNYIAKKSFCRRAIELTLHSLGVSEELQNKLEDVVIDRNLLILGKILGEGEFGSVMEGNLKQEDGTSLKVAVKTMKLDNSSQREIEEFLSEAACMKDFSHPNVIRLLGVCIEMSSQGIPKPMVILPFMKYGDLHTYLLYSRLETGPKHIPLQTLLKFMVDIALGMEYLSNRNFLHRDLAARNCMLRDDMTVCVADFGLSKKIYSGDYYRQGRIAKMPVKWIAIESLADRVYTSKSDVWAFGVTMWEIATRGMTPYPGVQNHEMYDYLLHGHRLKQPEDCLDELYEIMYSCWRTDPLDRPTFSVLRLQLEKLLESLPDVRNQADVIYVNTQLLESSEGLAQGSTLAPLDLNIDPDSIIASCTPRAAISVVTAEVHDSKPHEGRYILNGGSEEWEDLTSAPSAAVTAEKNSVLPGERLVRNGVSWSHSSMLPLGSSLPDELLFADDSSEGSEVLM

AncSZ = experiment: as above
Jak2 = Jak2 (UniProt O60674); experiment: as above
Fer (mouse) = experiment: as above
c-Src SH2 = experiment: SH2 binding enrichment of the phosphorylated peptide, bacterial display (enrichment ratio); higher = better substrate or ligand; peptides without Tyr show the background
SHP2-C SH2 = experiment: as above
Grb2 SH2 = Grb2 SH2 (UniProt P62993); experiment: as above
Chain of Grb2 SH2 (P62993 whole entry, looked up, the tested form may be a part): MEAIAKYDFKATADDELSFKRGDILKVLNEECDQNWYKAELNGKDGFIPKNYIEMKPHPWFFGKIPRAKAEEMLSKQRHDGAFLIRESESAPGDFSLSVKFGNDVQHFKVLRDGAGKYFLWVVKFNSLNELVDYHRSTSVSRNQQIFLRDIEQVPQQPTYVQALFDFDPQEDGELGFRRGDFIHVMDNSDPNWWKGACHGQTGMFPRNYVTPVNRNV
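Wherever SH2 binding enrichment of the phosphorylated peptide, bacterial display is given: peptide library displayed on the E. coli surface as eCPX fusions, selected cells deep-sequenced, score is each peptide's frequency after selection divided by its frequency in the input.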
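Wherever phosphorylation enrichment, bacterial display is given: 11-residue human phosphosite peptides and single-mutation variants displayed on the E. coli surface, counted by deep sequencing, each peptide's frequency after selection divided by its frequency in the unselected input library; frequency after pTyr selection over input frequency; kinase dosed for 20-30% of maximal phosphorylation in three min.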

Chain of Hck (P08631 whole entry, looked up): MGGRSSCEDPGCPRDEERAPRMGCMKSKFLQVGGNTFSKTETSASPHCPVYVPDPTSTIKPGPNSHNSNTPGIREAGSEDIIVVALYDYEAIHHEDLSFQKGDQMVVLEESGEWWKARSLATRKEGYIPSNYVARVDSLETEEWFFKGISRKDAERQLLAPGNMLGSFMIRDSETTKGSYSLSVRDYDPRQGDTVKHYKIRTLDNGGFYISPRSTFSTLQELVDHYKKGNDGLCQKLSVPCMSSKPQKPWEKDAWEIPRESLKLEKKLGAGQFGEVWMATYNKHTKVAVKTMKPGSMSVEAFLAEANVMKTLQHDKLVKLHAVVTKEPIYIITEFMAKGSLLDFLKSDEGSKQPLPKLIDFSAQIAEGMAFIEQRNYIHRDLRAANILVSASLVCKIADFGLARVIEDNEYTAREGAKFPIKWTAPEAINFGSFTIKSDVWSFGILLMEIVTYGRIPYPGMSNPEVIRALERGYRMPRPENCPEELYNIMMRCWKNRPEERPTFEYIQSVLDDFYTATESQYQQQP

Row | Sequence | phosphorylation enrichment (c-Src) | phosphorylation enrichment (EPHB1) | phosphorylation enrichment (Hck) | phosphorylation enrichment (Fes) | phosphorylation enrichment (FGFR3) | phosphorylation enrichment (Fyn) | phosphorylation enrichment (FGFR1) | phosphorylation enrichment (EPHB2) | phosphorylation enrichment (c-Abl (mouse)) | phosphorylation enrichment (MERTK) | phosphorylation enrichment (AncSZ) | phosphorylation enrichment (Jak2) | phosphorylation enrichment (Fer (mouse)) | SH2 binding enrichment (c-Src SH2) | SH2 binding enrichment (SHP2-C SH2) | SH2 binding enrichment (Grb2 SH2)
1 | CTTIHYNFMCH [TP53_Y234_N239H_YF] | 0.471 | 0.558 | 0.441 | 0.97 | 0.552 | 0.533 | 0.507 | 0.547 | 0.543 | 0.444 | 0.866 | 0.75 | 0.478 | 1.75 | 1.92 | 1.73
2 | CTTIHYNFMSN [TP53_Y234_C238S_YF] | 0.483 | 0.621 | 0.545 | 1.24 | 0.745 | 0.437 | 0.561 | 0.58 | 0.833 | 0.527 | 1.12 | 1.07 | 0.562 | 0.743 | 0.835 | 0.851
3 | CTTIHYNYMCN [TP53_Y234] | 0.469 | 0.762 | 0.482 | 0.903 | 0.692 | 0.453 | 0.539 | 0.696 | 0.471 | 0.485 | 0.853 | 0.661 | 0.557 | 4.14 | 2.41 | 1.25
4 | CTTIQYNYMCN [TP53_Y234_H233Q] | 0.441 | 0.614 | 0.551 | 0.955 | 0.692 | 0.555 | 0.556 | 0.671 | 0.493 | 0.482 | 0.927 | 0.751 | 0.445 | 4.11 | 2.31 | 1.37
5 | CYVYYYSYLLK [PTEN_Y178_R173C] | 1.47 | 1.15 | 0.949 | 1.81 | 1.79 | 0.734 | 1.8 | 0.792 | 1.66 | 1.17 | 1.5 | 1.53 | 0.669 | 0.68 | 0.543 | 0.864
6 | DAHFTYSRFPW [LY75_Y888_D884A_YF] | 5.62 | 2.72 | 5.79 | 1.09 | 0.736 | 3.13 | 0.748 | 3.63 | 1 | 3.89 | 1.05 | 1.29 | 0.499 | 0.719 | 0.942 | 1.06
7 | DDERGYRRVRS [GIGYF2_Y268] | 0.461 | 0.306 | 0.353 | 0.593 | 0.407 | 0.366 | 0.386 | 0.398 | 0.563 | 0.455 | 0.563 | 0.461 | 0.406 | 0.656 | 0.623 | 0.86
8 | DFDHSYFFIAT [ESD_Y262_G257D_YF] | 0.738 | 0.717 | 0.694 | 1.36 | 7.62 | 0.55 | 8.9 | 0.606 | 0.958 | 0.867 | 2.16 | 7.99 | 0.786 | 0.455 | 0.568 | 0.828
9 | DFFDLYGGKKF [PTPN11_Y66_E69K_YF] | 3.49 | 0.44 | 7.26 | 1.02 | 0.616 | 3.04 | 0.57 | 0.519 | 0.69 | 0.489 | 1.01 | 0.974 | 0.499 | 0.428 | 0.775 | 0.967
10 | DFTSRYLSASD [PKHD1_Y828_N830S] | 0.329 | 0.549 | 0.453 | 0.846 | 0.605 | 0.466 | 0.535 | 0.564 | 0.546 | 0.46 | 0.79 | 0.625 | 0.42 | 0.527 | 0.713 | 0.694
11 | DIRAQYDELAR [KRT18_Y256] | 0.474 | 0.452 | 0.761 | 1.01 | 0.592 | 0.58 | 0.576 | 0.483 | 0.766 | 0.47 | 1.02 | 1.04 | 0.503 | 7.06 | 0.702 | 0.931
12 | DKANRYFSPNV [PTEN_Y336_F341V] | 0.388 | 0.297 | 0.376 | 0.544 | 0.504 | 0.378 | 0.355 | 0.394 | 0.486 | 0.354 | 0.446 | 0.412 | 0.363 | 0.644 | 0.839 | 0.808
13 | DKATEYSQFMR [MAX_Y70_I71S_YF] | 0.873 | 0.39 | 0.631 | 0.683 | 0.397 | 0.733 | 0.449 | 0.541 | 0.519 | 0.423 | 0.84 | 0.524 | 0.392 | 0.512 | 0.688 | 0.824
14 | DLAAQYTTVGH [SGSH_Y240_R245H] | 0.699 | 0.463 | 0.96 | 0.947 | 0.651 | 0.585 | 0.462 | 0.453 | 0.593 | 0.405 | 0.854 | 0.586 | 0.519 | 3.24 | 1.41 | 0.843
15 | DLQDENDFKCK [STAT1_Y170_Y170N] | 0.498 | 0.621 | 0.602 | 1.86 | 0.853 | 0.548 | 0.568 | 0.737 | 0.812 | 0.415 | 1.42 | 1.55 | 0.612 | 0.43 | 0.642 | 0.897
16 | DLRTGYSVPFG [TGM1_Y370_Y365D_YF] | 0.341 | 0.44 | 0.418 | 0.721 | 0.644 | 0.48 | 0.493 | 0.468 | 0.794 | 0.364 | 0.664 | 0.576 | 0.486 | 7.49 | 0.928 | 0.973
17 | DPEGAYTTRGG [EPHA3_Y779_A777G] | 0.536 | 0.497 | 0.483 | 0.798 | 0.534 | 0.394 | 0.369 | 0.501 | 0.789 | 0.412 | 0.896 | 0.774 | 0.515 | 0.524 | 0.911 | 0.979

Row | Sequence | phosphorylation enrichment (c-Src) | phosphorylation enrichment (EPHB1) | phosphorylation enrichment (Hck) | phosphorylation enrichment (Fes) | phosphorylation enrichment (FGFR3) | phosphorylation enrichment (Fyn) | phosphorylation enrichment (FGFR1) | phosphorylation enrichment (EPHB2) | phosphorylation enrichment (c-Abl (mouse)) | phosphorylation enrichment (MERTK) | phosphorylation enrichment (AncSZ) | phosphorylation enrichment (Jak2) | phosphorylation enrichment (Fer (mouse)) | SH2 binding enrichment (c-Src SH2) | SH2 binding enrichment (SHP2-C SH2) | SH2 binding enrichment (Grb2 SH2)
18 | DPGVSYRTREE [PDHA1_Y301] | 0.376 | 0.385 | 0.461 | 0.809 | 0.53 | 0.409 | 0.637 | 0.61 | 0.647 | 0.378 | 0.891 | 0.549 | 0.368 | 0.732 | 0.844 | 0.744
19 | DPKFHYDNTAG [KDR_Y1214] | 0.547 | 0.373 | 0.496 | 0.79 | 0.489 | 0.524 | 0.467 | 0.422 | 0.497 | 0.505 | 0.667 | 0.698 | 0.401 | 0.738 | 0.646 | 0.989
20 | DPLLTYWFPPK [LMNA_Y481_R482W] | 6.1 | 12.6 | 7.34 | 1.13 | 6.67 | 6.5 | 8.47 | 14.8 | 11.6 | 9.17 | 2.78 | 5.74 | 0.933 | 0.67 | 0.797 | 1.19
21 | DPYHVYIKNRV [KCNE3_Y95] | 2.15 | 0.544 | 0.958 | 1.02 | 0.628 | 1.02 | 0.407 | 0.567 | 0.832 | 0.396 | 0.973 | 0.872 | 0.375 | 1.09 | 0.762 | 0.874
22 | DRFANYIEKVR [DES_Y122] | 0.425 | 0.523 | 0.42 | 0.759 | 0.508 | 0.434 | 0.419 | 0.424 | 0.728 | 0.367 | 0.628 | 1.02 | 0.41 | 0.473 | 0.743 | 0.769
23 | DRLAVYIDRVR [LMNA_Y45] | 0.359 | 0.542 | 0.434 | 1.11 | 0.745 | 0.476 | 0.418 | 0.554 | 0.61 | 0.41 | 1.24 | 0.892 | 0.488 | 0.682 | 0.861 | 1.07
24 | DSASAYADEVK [ETNPPL_Y189] | 0.638 | 0.536 | 0.653 | 1.04 | 0.685 | 0.549 | 0.655 | 0.544 | 0.685 | 0.601 | 1.28 | 1.15 | 0.53 | 0.593 | 0.661 | 0.724
25 | DSNLIYSQIWS [FCRL3_Y662_P660L] | 7.08 | 15.2 | 9.1 | 12.2 | 6.79 | 9.04 | 7.38 | 17.1 | 15.4 | 10 | 2.1 | 2.46 | 15.7 | 0.538 | 0.951 | 0.754
26 | DVCKNYAEAKD [ALB_Y343] | 0.55 | 0.541 | 0.571 | 1.19 | 0.702 | 0.509 | 0.569 | 0.561 | 0.804 | 0.448 | 1.07 | 1.14 | 0.495 | 1.02 | 0.618 | 0.739
27 | DVMDFYKTLRG [NR3C1_Y30] | 0.342 | 0.404 | 0.434 | 0.728 | 0.484 | 0.451 | 0.393 | 0.423 | 0.571 | 0.394 | 0.719 | 0.685 | 0.41 | 0.47 | 0.537 | 0.718
28 | DVQNEYDSNHC [ZFYVE16_Y36_A35E] | 0.444 | 0.508 | 0.576 | 1.07 | 0.665 | 0.59 | 0.512 | 0.513 | 0.671 | 0.477 | 1.01 | 0.701 | 0.414 | 0.541 | 0.692 | 1.1
29 | DYLEKYYKFGS [NNMT_Y24] | 0.636 | 0.33 | 0.402 | 0.768 | 0.553 | 0.436 | 0.486 | 0.436 | 0.458 | 0.494 | 0.631 | 0.791 | 0.369 | 0.623 | 0.727 | 0.922
30 | EAEPFYCSLRD [NPHS1_Y1139_R1140C_YF] | 2.86 | 1.19 | 2.54 | 1.36 | 0.896 | 2.66 | 0.668 | 1.27 | 0.878 | 1.67 | 1.54 | 1.17 | 2.19 | 0.668 | 0.616 | 0.941
31 | EAEPFYRSLRD [NPHS1_Y1139_YF] | 0.53 | 0.461 | 0.644 | 1.18 | 0.707 | 0.433 | 0.536 | 0.545 | 0.743 | 0.539 | 0.792 | 0.893 | 0.451 | 0.521 | 0.628 | 1.19
32 | EAEPYYCSLRD [NPHS1_Y1139_R1140C] | 4.11 | 1.17 | 2.94 | 1.43 | 1.31 | 3.37 | 1.34 | 1.21 | 1.62 | 2.28 | 1.78 | 1.33 | 1.85 | 1.91 | 0.908 | 0.931
33 | EAIMTYVSSFF [ACTN4_Y260_K255E_YF] | 0.975 | 0.621 | 0.643 | 1.04 | 0.675 | 0.778 | 0.501 | 0.726 | 0.842 | 0.422 | 1.02 | 0.9 | 0.468 | 0.493 | 0.642 | 0.659
